Test results taken from patent publication US20240092920A1 (KEYMED BIOSCIENCES, published 2024).
Numbering of substitutions follows the chain as printed. Blank lines part the entries; values can stand above or below the binder they belong to.

How the values were obtained:
[1] = target: T1, hIL-4Rα, full length, on stably transfected HEK293 cells (human, UniProt P24394 26-825); assay: flow cytometry on 293-hIL-4Rα stably transfected cells, anti-human IgG Fab'2-AF647
T1 construct: whole, on cells; also called HEK293-hIL-4Rα
T1 sequence (looked up): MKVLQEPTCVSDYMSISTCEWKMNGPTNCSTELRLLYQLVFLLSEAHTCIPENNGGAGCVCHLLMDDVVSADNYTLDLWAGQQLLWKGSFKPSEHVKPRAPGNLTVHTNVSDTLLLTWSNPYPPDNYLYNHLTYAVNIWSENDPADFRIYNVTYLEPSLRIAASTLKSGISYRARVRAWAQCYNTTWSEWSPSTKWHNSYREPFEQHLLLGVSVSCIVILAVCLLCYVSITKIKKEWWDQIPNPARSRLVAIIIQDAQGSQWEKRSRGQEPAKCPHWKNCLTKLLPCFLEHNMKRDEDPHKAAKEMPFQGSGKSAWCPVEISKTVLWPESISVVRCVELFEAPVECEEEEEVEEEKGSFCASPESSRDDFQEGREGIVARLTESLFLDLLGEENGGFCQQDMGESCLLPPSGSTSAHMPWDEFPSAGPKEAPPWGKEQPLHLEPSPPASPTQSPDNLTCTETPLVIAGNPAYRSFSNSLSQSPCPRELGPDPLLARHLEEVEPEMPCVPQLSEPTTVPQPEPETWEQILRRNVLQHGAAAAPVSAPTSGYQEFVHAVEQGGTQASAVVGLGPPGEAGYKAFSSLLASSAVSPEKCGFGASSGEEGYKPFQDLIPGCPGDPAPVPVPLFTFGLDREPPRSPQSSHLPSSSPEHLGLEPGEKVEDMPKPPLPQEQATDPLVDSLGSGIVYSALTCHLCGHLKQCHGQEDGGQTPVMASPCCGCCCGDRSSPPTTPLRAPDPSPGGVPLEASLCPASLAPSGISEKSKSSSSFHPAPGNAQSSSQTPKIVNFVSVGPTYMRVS
Description: Every 1*10⁶ cells corresponds to 100 μl of 3% BSA/PBS solution, and the solution is blocked at 4° C. for 20 minutes. The prepared cells are added to a 96-well U-type plate at a volume of 100 μl/well, and centrifuged at 1100 rpm for 3 minutes, and the supernatant is discarded; and the primary antibody solution is added and incubated for 1 hour on ice. […] After incubation with the primary antibody solution, additional 0.5% BSA/PBS is added to a volume of […], centrifuged at 1100 rpm for 3 minutes, and the supernatant is discarded. 150 μl of 0.5% BSA/PBS is further added, centrifuged at 1100 rpm for 3 minutes, and the supernatant is discarded; before adding a secondary antibody anti-human IgG, Fab′2-AF647, same is diluted at 1:300 with 1% BSA/PBS. 40 μl of the secondary antibody solution is added to each well and incubated on ice for 45 minutes. After incubation with the secondary antibody solution, additional 0.5% BSA/PBS is added to a volume of 150 μl, centrifuged at 1100 rpm for 3 minutes, and the supernatant is discarded; 150 μl of 0.5% BSA/PBS is further added, centrifuged at 1100 rpm for 3 minutes, and the supernatant is discarded; 20-100 μl of PBS is added to resuspend the cells to 1*10⁶ cells per ml, and the obtained suspension is loaded onto a flow cytometer (I-Que screener). After opening the instrument and operating system according to the correct process, and setting the correct parameters, the cells are loaded to the test plate, and the fluorescent signal is detected, analysis is performed using Graph Pad Prism 5 software.

[2] = target: T2, recombinant protein of human IL-4Rα extracellular region (human, UniProt P24394 26-232); assay: ELISA on coated human hIL-4Rα (1 ug/ml), HRP-linked secondary antibody, OD450
T2 construct: range 26-232; Made in HEK293-6E cells, purified on nickel chelate; Used biotin-labeled on SA probes in the Fortebio assays and unlabeled as ELISA coat; also called hIL-4Rα; IL-4Rα recombinant protein
T2 sequence: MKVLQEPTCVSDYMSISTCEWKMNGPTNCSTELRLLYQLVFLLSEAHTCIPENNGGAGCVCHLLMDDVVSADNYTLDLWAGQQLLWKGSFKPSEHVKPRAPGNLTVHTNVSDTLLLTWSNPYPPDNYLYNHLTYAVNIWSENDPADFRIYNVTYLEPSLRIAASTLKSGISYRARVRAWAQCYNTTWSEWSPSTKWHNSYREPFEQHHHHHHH
Description: (§1) 1 ug/ml human hIL-4Rα, 10 ug/ml cynomolgus cynoIL-4Rα, 1 ug/ml mouse mIL-4Rα (Sino Biological, Cat: 80198-R08H) and 1 ug/ml rat-derived ratIL-4Rα (Sino Biological, Cat: 51180-MO8H) are diluted in 0.05 M carbonate coating buffer (pH 9.5) at 4° C. overnight. The solution in the wells is discarded the next day and the wells are washed 3 times with PBS washing buffer. Then PBS solution containing 2% BSA is added for blocking for 2 hours. After washing 3 times with PBS washing buffer, 100 ul of humanized candidate antibodies at different diluted concentrations is added, incubated for 1 h at room temperature, and then washed 3 times with PBS washing buffer; the HRP cross-linked antibody (Jackson Immuno Research) is diluted at 1:10000 with PBS washing buffer and incubated for 1 hour at room temperature. After washing 3 times with PBS washing buffer, 100 ul of TMB substrate solution is added to develop color, and after reaction at room temperature for 10 minutes; the reaction is stopped by the addition of 50 ul of 0.5 M concentrated sulfuric acid solution and the absorbance at 450 nm is read.

[3] = target: T3, recombinant protein of cynomolgus IL-4Rα extracellular region (cynomolgus monkey); assay: ELISA on coated cynomolgus cynoIL-4Rα (10 ug/ml), HRP-linked secondary antibody, OD450
T3 construct: also called cynoIL-4Rα; cynomolgus monkey IL-4Rα
T3 chain: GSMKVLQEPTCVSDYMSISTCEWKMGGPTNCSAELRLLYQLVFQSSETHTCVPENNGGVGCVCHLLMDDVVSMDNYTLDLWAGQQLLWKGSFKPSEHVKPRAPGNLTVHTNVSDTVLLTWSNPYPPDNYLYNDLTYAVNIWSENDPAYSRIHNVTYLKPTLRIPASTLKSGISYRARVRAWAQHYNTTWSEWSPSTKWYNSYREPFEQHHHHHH
Description: as §1

[4] = target: T1, hIL-4Rα, full length, on stably …; assay: flow cytometry blocking assay on 293-hIL-4Rα stably transfected cells; blocked ligand: biotin-labeled IL-4 at 0.15 ug/ml, SA-PE
Description: Every 1*10⁶ cells corresponds to 100 μl of 3% BSA/PBS solution, and the solution is blocked at 4° C. for 20 minutes. The prepared cells are added to a 96-well U-type plate at a volume of 100 μl/well, and centrifuged at 1100 rpm for 3 minutes, and the supernatant is discarded; and the primary antibody solution is added and incubated for 1 hour on ice. Purified candidate antibodies are made into 5 concentration series with a starting concentration of 100 nM, and diluted according to a series of 1:5. After incubation with the primary antibody solution, additional 0.5% BSA/PBS is added to a volume of 150 μl, centrifuged at 1100 rpm for 3 minutes, and the supernatant is discarded. 150 μl of 0.5% BSA/PBS is further added, centrifuged at 1100 rpm for 3 minutes, and the supernatant is discarded; biotin-labeled IL-4 at a final concentration of 0.15 ug/ml is added and incubated on ice for 45 minutes. The secondary antibody SA-PE is diluted at 1:300 with 1% BSA/PBS; 40 μl of the secondary antibody solution is added to each well and incubated on ice for 45 minutes. After incubation with the secondary antibody solution, additional 0.5% BSA/PBS is added to a volume of 150 μl, centrifuged at 1100 rpm for 3 minutes, and the supernatant is discarded; 150 μl of 0.5% BSA/PBS is further added, centrifuged at 1100 rpm for 3 minutes, and the supernatant is discarded. 20-100 μl of PBS is added to resuspend the cells to 1*10⁶ cells per ml, and the obtained suspension is loaded onto a flow cytometer (I-Que screener). After opening the instrument and operating system according to the correct process, and setting the correct parameters, the cells are loaded to the test plate, and the fluorescent signal is detected, analysis is performed using Graph Pad Prism 5 software.

EC50 (read off the curve) [1]: ~0.07 nM | EC50 [2]: 0.06 nM | EC50 [3]: 89.2 nM | IC50 (read off the curve) [4]: ~0.2 nM
B1: 1026/1011 (antibody, V domains shown)
VH: QVQLVQSGAEVKKPGASVKMSCKASVYTFTGYNMHWVRQAPGQGLEWIGGLHPGNGDTSYNQKFKDRATLTADRSSNTAYMELSSLRSEDTAVYYCALTTAGRAWFAYWGQGTLVTVSS
VL: DIQMTQSPSSLSASVGDRVTITCQASQDISNYLNWYQQKPGKAPKLLIYYTSRLHSGVPSRFSGSGSGTDYTFTISSLQPEDIATYFCQQGNTLPWTFGGGTKVEIK
notes: Humanized candidate antibody; same remark on Fab/IgG wording as for 1021/1013; also called 1026/1011-IgG; VH1026 with VL1011

EC50 (read off the curve) [1]: ~0.06 nM | EC50 [2]: 0.017 nM | EC50 [3]: 13.2 nM | IC50 (read off the curve) [4]: ~0.2 nM
B2: 1026/1012 (antibody, V domains shown)
VH: B1 VH
VL: B1 VL with Q24R, F73L, I83F
notes: Humanized candidate antibody; same remark on Fab/IgG wording as for 1021/1013; also called 1026/1012-IgG; VH1026 with VL1012
